Results reported in article PMC5428264, “Dentin sialoprotein facilitates dental mesenchymal cell differentiation and dentin formation” (Scientific Reports, 2017).

What was measured:
[1] = molecular target: T1, GST-DSPf5 fusion protein (COOH-terminal DSP domain aa 363–458) (mouse, UniProt P97399 363-458); assay: co-IP; in vitro immunoprecipitation: 10 μg of purified GST-DSP and GST-Ocln fusion proteins mixed, precipitated with DSP or Ocln antibody and protein G Sepharose, blotted with the other antibody; conditions: both partners purified
T1 construct: also called DSP peptide; source: E. coli BL21, purified (GSTrap 4B)
T1 sequence (looked up): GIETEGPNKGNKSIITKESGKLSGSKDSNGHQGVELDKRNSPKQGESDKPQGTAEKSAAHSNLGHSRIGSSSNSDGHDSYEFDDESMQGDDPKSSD

[2] = molecular target: T2, biotinylated DSPf5 (recombinant DSP aa 363–458) (mouse, UniProt P97399 363-458, biotin (Sulfo-NHS-LC-biotin)); assay: ELISA; substrate binding assay: OclnL2 coated at 1 μg per well (BSA as control), biotinylated DSPf5 at 0–18 fold molar excess in PBS with 1% BSA, room temperature, different time periods; AP-conjugated streptavidin, PNPP, 405 nm; conditions: both partners purified
T2 construct: The same recombinant protein as m6, labelled with biotin; source: E. coli BL21, purified (GSTrap 4B), then reacted with Sulfo-NHS-LC-biotin
T2 sequence (looked up): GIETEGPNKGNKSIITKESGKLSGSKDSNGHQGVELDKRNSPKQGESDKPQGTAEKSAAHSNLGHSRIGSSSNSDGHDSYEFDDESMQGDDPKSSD

binding result [1]: binds
binding result [2]: binds
B1: GST-OclnL2 fusion protein (occludin extracellular loop 2, aa 194–241) (domain or fragment, mouse, UniProt Q61146 194-241, looked up)
chain: GVNPTAQASGSMYGSQIYMICNQFYTPGGTGLYVDQYLYHYCVVDPQE
notes: occludin, mouse, extracellular loop 2, residues 194-241 counted from the translation start site; Cloned into pGEX-6P3 from pBluescript SK-Ocln; also called Ocln loop2; extracellular loop 2 of Ocln; source: E. coli BL21, purified (GSTrap 4B)
